The series concerns Escherichia coli TOP10. In words: shrunken log2 fold change of peptide-encoding DNA abundance (4.5 h post-induction vs induction); higher = less antimicrobial activity (less host growth inhibition). Particulars: time post-induction: 4.5 h; library: site-saturation at positions 5, 18, 19, 20.
With RRIRNRPPRLPRPRPRPCHGPRP, the “shrunken log2 fold change” value was -0.00208.
Turning to RRIRWRPPRLPRPRPRPFMAPRP, the “shrunken log2 fold change” value was -0.121.
In the case of RRIRLRPPRLPRPRPRPRGDPRP, the “shrunken log2 fold change” value was 0.553.
The figure for RRIRSRPPRLPRPRPRPDEGPRP is 0.0432; for RRIRNRPPRLPRPRPRPQPAPRP it is 0.0618.
To RRIRNRPPRLPRPRPRPPNYPRP belongs -0.564.
As to RRIRKRPPRLPRPRPRPAKTPRP, the “shrunken log2 fold change” value came out at 0.0104.
As to RRIRFRPPRLPRPRPRPTVCPRP, the “shrunken log2 fold change” value was -0.0464.
Turning to RRIRHRPPRLPRPRPRPQSEPRP, the “shrunken log2 fold change” value was -0.314.
To RRIRPRPPRLPRPRPRPFNKPRP belongs -0.468; to RRIRFRPPRLPRPRPRPLNRPRP, -0.196; to RRIRNRPPRLPRPRPRPNWLPRP, 0.0494.
With RRIRWRPPRLPRPRPRPRYTPRP, the “shrunken log2 fold change” value was -0.25.
To RRIRDRPPRLPRPRPRPMMEPRP belongs 0.0314.
To RRIRDRPPRLPRPRPRPPILPRP belongs -0.147; to RRIRNRPPRLPRPRPRPYMYPRP, 0.0369.
On to RRIRTRPPRLPRPRPRPMIGPRP, for which the “shrunken log2 fold change” value was -0.107.
Regarding RRIRRRPPRLPRPRPRPRKFPRP, the “shrunken log2 fold change” value was found to be 0.491.
Regarding RRIRLRPPRLPRPRPRPVMVPRP, the “shrunken log2 fold change” value is -0.0863.
RRIRLRPPRLPRPRPRPQQGPRP: the “shrunken log2 fold change” value is -0.0774.
In the case of RRIRSRPPRLPRPRPRPKPFPRP, the “shrunken log2 fold change” value is -0.646.
As to RRIRMRPPRLPRPRPRPHVKPRP, the “shrunken log2 fold change” value is -0.282.
In the case of RRIRDRPPRLPRPRPRPNGKPRP, the “shrunken log2 fold change” value was -0.181.
To RRIRWRPPRLPRPRPRPPNTPRP belongs 0.142.
Turning to RRIRMRPPRLPRPRPRPKDSPRP, the “shrunken log2 fold change” value came out at 1.66.
For RRIRSRPPRLPRPRPRPMTTPRP, the “shrunken log2 fold change” value stood at 0.572.
RRIRWRPPRLPRPRPRPDRRPRP: the “shrunken log2 fold change” value is -0.0279.
In the case of RRIRLRPPRLPRPRPRPRRLPRP, the “shrunken log2 fold change” value is 0.18.
Consider RRIRLRPPRLPRPRPRPPVGPRP, for which the “shrunken log2 fold change” value turned out to be 1.42.
With RRIRPRPPRLPRPRPRPGLHPRP, the “shrunken log2 fold change” value stood at 0.09.
Consider RRIRCRPPRLPRPRPRPYLTPRP, for which the “shrunken log2 fold change” value is -0.459.
In the case of RRIRGRPPRLPRPRPRPPVSPRP, the “shrunken log2 fold change” value worked out at 0.604.
To RRIRFRPPRLPRPRPRPKSLPRP belongs 0.0638; to RRIRNRPPRLPRPRPRPNAIPRP, -0.0211.
RRIRFRPPRLPRPRPRPKNFPRP: the “shrunken log2 fold change” value worked out at 0.0482.
RRIRARPPRLPRPRPRPESMPRP: the “shrunken log2 fold change” value amounted to 0.77.
As for RRIRSRPPRLPRPRPRPHQQPRP, the “shrunken log2 fold change” value was -0.0386.
Regarding RRIRFRPPRLPRPRPRPTMEPRP, the “shrunken log2 fold change” value was -0.266.
Regarding RRIRPRPPRLPRPRPRPTFLPRP, the “shrunken log2 fold change” value was -0.0646.
Turning to RRIRSRPPRLPRPRPRPMANPRP, the “shrunken log2 fold change” value was -0.397.
The figure for RRIRMRPPRLPRPRPRPLNDPRP is 0.106.
In the case of RRIRTRPPRLPRPRPRPLLYPRP, the “shrunken log2 fold change” value is -0.444.
The figure for RRIRARPPRLPRPRPRPNCEPRP is 0.186; for RRIRRRPPRLPRPRPRPKFYPRP it is -0.102.
On to RRIRKRPPRLPRPRPRPAYIPRP, for which the “shrunken log2 fold change” value turned out to be 0.0173.
Take RRIRWRPPRLPRPRPRPTRHPRP: the “shrunken log2 fold change” value is 0.37.
To RRIRKRPPRLPRPRPRPHRAPRP belongs 0.515; to RRIRQRPPRLPRPRPRPTRWPRP, 0.561; to RRIRPRPPRLPRPRPRPNVEPRP, 0.0775.
Regarding RRIRRRPPRLPRPRPRPFDNPRP, the “shrunken log2 fold change” value is -0.241.
To RRIRIRPPRLPRPRPRPEDIPRP belongs -0.407; to RRIRCRPPRLPRPRPRPILYPRP, -0.716; to RRIRARPPRLPRPRPRPATKPRP, 0.531.
To RRIRDRPPRLPRPRPRPTMTPRP belongs 0.334; to RRIRYRPPRLPRPRPRPIRVPRP, -0.0013.
RRIRCRPPRLPRPRPRPLFLPRP: the “shrunken log2 fold change” value was -0.601.
Turning to RRIRPRPPRLPRPRPRPLWTPRP, the “shrunken log2 fold change” value turned out to be 0.0798.
To RRIRFRPPRLPRPRPRPHGKPRP belongs -0.0579; to RRIRPRPPRLPRPRPRPLVYPRP, -0.0742; to RRIRSRPPRLPRPRPRPMQHPRP, -0.122.
To RRIRNRPPRLPRPRPRPRGTPRP belongs 0.224; to RRIRMRPPRLPRPRPRPFRFPRP, 0.089.
The figure for RRIRWRPPRLPRPRPRPAVCPRP is 0.803; for RRIRQRPPRLPRPRPRPPCNPRP it is -0.115; for RRIRMRPPRLPRPRPRPWHWPRP it is 0.0862.
Turning to RRIRQRPPRLPRPRPRPQEEPRP, the “shrunken log2 fold change” value was -0.0176.
The figure for RRIRERPPRLPRPRPRPVGIPRP is 0.144.
In the case of RRIRERPPRLPRPRPRPDNRPRP, the “shrunken log2 fold change” value was -0.0217.
The figure for RRIRGRPPRLPRPRPRPVLTPRP is 0.834.
To RRIRWRPPRLPRPRPRPHAYPRP belongs -0.349; to RRIRMRPPRLPRPRPRPTQWPRP, 0.479; to RRIRERPPRLPRPRPRPGSEPRP, -0.0924.
As to RRIRERPPRLPRPRPRPPDAPRP, the “shrunken log2 fold change” value was determined as 0.142.
To RRIRSRPPRLPRPRPRPWTVPRP belongs -0.0297; to RRIRDRPPRLPRPRPRPLVLPRP, 0.176; to RRIRFRPPRLPRPRPRPIQCPRP, -0.105.
Take RRIRERPPRLPRPRPRPNTKPRP: the “shrunken log2 fold change” value was 0.0156.
To RRIRPRPPRLPRPRPRPSQCPRP belongs -0.985; to RRIRQRPPRLPRPRPRPIDHPRP, -0.0445; to RRIRERPPRLPRPRPRPLIPPRP, -0.463.
To RRIRIRPPRLPRPRPRPVVIPRP belongs -0.307; to RRIRERPPRLPRPRPRPFEFPRP, -0.629.
To RRIRDRPPRLPRPRPRPCGVPRP belongs 0.0765; to RRIRHRPPRLPRPRPRPLPMPRP, -0.00404; to RRIRFRPPRLPRPRPRPYNPPRP, -0.237.
Take RRIRTRPPRLPRPRPRPMSKPRP: the “shrunken log2 fold change” value is -0.0499.
RRIRHRPPRLPRPRPRPRPNPRP: the “shrunken log2 fold change” value came out at 0.321.
Turning to RRIRSRPPRLPRPRPRPKQLPRP, the “shrunken log2 fold change” value came out at 0.0372.
To RRIRLRPPRLPRPRPRPSDLPRP belongs -0.163; to RRIRDRPPRLPRPRPRPQDDPRP, 0.0352; to RRIRMRPPRLPRPRPRPCRGPRP, 0.0309.
On to RRIRLRPPRLPRPRPRPHAVPRP, for which the “shrunken log2 fold change” value was found to be 0.0578.
The figure for RRIRYRPPRLPRPRPRPTIQPRP is -1.09.
To RRIRKRPPRLPRPRPRPDYGPRP belongs 0.111; to RRIRKRPPRLPRPRPRPIKLPRP, -0.243; to RRIRQRPPRLPRPRPRPDYSPRP, -0.0839.
On to RRIRPRPPRLPRPRPRPAHLPRP, for which the “shrunken log2 fold change” value is 0.317.
To RRIRVRPPRLPRPRPRPFGHPRP belongs 0.13.
For the sequence RRIRARPPRLPRPRPRPWIAPRP, the “shrunken log2 fold change” value is -0.0071.
To RRIRRRPPRLPRPRPRPPPRPRP belongs 1.32; to RRIRFRPPRLPRPRPRPIAAPRP, 0.417; to RRIRFRPPRLPRPRPRPIWFPRP, -0.129.
The figure for RRIRYRPPRLPRPRPRPSAMPRP is -0.0964.
The figure for RRIRWRPPRLPRPRPRPCEDPRP is 0.115.
Turning to RRIRIRPPRLPRPRPRPGPWPRP, the “shrunken log2 fold change” value is 0.0988.
The figure for RRIRNRPPRLPRPRPRPTQQPRP is 0.244; for RRIRCRPPRLPRPRPRPCTEPRP it is -0.186; for RRIRYRPPRLPRPRPRPGSKPRP it is -0.0678.
To RRIRHRPPRLPRPRPRPRPFPRP belongs -0.18; to RRIRPRPPRLPRPRPRPLVCPRP, 0.272.
The figure for RRIRERPPRLPRPRPRPWREPRP is 0.127; for RRIRVRPPRLPRPRPRPLISPRP it is -0.0293.
With RRIRNRPPRLPRPRPRPMSIPRP, the “shrunken log2 fold change” value was 0.00262.
For RRIRLRPPRLPRPRPRPTKDPRP, the “shrunken log2 fold change” value is -0.183.
Take RRIRTRPPRLPRPRPRPQPMPRP: the “shrunken log2 fold change” value amounted to 0.267.
Take RRIRNRPPRLPRPRPRPPREPRP: the “shrunken log2 fold change” value worked out at 0.534.
The figure for RRIRPRPPRLPRPRPRPVATPRP is 0.524; for RRIRRRPPRLPRPRPRPTPSPRP it is 0.772; for RRIRGRPPRLPRPRPRPCHDPRP it is 0.458.
Regarding RRIRERPPRLPRPRPRPPKTPRP, the “shrunken log2 fold change” value is -0.124.
To RRIRKRPPRLPRPRPRPWYFPRP belongs 0.0699; to RRIRYRPPRLPRPRPRPQNAPRP, -0.369; to RRIRFRPPRLPRPRPRPRWSPRP, 0.112.
As for RRIRTRPPRLPRPRPRPKTEPRP, the “shrunken log2 fold change” value is 0.0183.
The figure for RRIRCRPPRLPRPRPRPDFLPRP is -0.657.

The values are drawn from the supplement of paper PMC9112550, “Optimization of the antimicrobial peptide Bac7 by deep mutational scanning” (BMC Biology, 2022).
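Further: peptides expressed intracellularly from a pBAD plasmid library in pooled LB shake-flask culture, induced with 0.3% L-arabinose, DNA abundance read by NGS, three biological replicates, DESeq2 with apeglm shrinkage.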
